According to publication PMC6445578:

Columns and labels:
[1] = target: hERG F860A core channel (hERG ΔPAS F860A-citrine, S620T) (human) (UniProt Q12809); assay: FRET or BRET
[2] = target: hERG ΔPAS-citrine channel (hERG core channel), S620T (human) (UniProt Q12809); assay: FRET or BRET

hERG PAS domain fused to cyan fluorescent protein (hERG PAS-CFP) (from UniProt Q12809 1-135) (domain or fragment)
Ratio A – Ratio A0 (proportional to FRET efficiency) [1]: 0.09
Ratio A − Ratio A0 (proportional to FRET efficiency) [2]: 0.2
